Values of other authors in paper PMC9304195.
pKd: −log10 of the molar value.

Molecular target: UGGT (Homo sapiens) (UniProt Q9NYU2)
Sequence (Q9NYU2 43-1555): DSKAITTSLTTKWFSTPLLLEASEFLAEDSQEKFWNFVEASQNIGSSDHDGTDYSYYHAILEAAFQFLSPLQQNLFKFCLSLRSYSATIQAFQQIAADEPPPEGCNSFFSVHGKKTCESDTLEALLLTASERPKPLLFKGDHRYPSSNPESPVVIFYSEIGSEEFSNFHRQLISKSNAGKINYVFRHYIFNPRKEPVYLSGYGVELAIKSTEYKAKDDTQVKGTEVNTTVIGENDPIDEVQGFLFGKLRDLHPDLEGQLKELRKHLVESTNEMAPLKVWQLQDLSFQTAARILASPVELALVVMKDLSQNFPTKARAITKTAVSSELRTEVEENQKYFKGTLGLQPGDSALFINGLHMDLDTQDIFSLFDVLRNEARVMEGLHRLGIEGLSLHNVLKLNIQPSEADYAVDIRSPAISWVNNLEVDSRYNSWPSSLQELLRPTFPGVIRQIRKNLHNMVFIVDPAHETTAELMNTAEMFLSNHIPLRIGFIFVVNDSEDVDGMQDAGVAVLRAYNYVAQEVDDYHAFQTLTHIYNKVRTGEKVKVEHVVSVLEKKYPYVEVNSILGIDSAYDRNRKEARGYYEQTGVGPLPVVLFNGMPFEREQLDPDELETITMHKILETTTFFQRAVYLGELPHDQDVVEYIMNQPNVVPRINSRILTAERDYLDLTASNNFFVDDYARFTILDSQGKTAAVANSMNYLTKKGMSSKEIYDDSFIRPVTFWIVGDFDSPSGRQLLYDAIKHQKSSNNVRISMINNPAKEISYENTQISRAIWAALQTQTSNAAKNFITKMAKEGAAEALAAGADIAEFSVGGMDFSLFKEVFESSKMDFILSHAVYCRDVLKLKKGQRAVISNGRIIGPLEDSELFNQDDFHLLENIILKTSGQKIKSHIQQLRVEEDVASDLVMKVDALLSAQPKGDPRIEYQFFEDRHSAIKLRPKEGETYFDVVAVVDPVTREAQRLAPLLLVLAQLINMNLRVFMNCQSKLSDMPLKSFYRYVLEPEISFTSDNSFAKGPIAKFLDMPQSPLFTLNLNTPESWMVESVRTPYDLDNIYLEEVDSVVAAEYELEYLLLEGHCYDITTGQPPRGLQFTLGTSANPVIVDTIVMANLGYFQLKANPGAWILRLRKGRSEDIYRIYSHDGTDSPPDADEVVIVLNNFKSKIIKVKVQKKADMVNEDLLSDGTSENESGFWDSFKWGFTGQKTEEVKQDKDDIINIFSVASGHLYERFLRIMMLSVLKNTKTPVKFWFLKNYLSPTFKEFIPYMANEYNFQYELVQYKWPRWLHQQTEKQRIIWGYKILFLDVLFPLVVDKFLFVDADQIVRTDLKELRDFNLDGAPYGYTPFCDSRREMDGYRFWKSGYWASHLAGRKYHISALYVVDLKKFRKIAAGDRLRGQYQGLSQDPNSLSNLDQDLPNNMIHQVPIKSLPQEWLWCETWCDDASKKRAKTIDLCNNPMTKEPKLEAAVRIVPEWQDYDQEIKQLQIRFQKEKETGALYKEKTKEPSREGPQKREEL

Chain of SELENOF (O60613 32-165): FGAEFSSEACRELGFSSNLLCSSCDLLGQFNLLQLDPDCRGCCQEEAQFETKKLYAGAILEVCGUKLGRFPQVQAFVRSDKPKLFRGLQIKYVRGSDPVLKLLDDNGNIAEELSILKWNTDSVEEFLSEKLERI

- pKd: 7.70
Substance: SELENOF (from UniProt O60613)
